Consider 4 molecules from patent publication US20240158538A1 (HUMMINGBIRD BIOSCIENCE HOLDINGS PTE, published 2024).

In experiment [1] the target is T1, PD-1 (ELISA coat) (human, UniProt Q15116 25-167, limits assumed).
T1 construct: Species read from the list 'human VISTA, PD-1, PD-L1, ...'
The experiment can be described thus: ELISA, plate coated with PD1. (In general: In an ELISA, binding on a coated surface is turned into a signal by an enzyme label.)

The target in experiment [2] is T2, B7H3 (ELISA coat) (human, UniProt Q5ZPR3 29-461, limits assumed).
T2 construct: Species read from the list 'human VISTA, PD-1, PD-L1, ...'; also called CD276
T2 sequence (looked up): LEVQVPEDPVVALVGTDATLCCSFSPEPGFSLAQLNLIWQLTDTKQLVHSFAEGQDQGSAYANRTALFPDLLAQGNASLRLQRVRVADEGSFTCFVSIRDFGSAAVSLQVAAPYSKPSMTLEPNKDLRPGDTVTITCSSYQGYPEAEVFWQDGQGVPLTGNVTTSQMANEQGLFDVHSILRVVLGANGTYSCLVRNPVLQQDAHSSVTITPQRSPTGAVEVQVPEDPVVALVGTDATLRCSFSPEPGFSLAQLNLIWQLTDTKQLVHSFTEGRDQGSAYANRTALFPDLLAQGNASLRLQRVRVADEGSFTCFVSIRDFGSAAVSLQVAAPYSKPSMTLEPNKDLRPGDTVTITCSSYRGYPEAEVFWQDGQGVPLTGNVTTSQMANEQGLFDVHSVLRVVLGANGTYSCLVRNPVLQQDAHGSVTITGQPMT
The experiment can be described thus: ELISA, plate coated with B7H3.

Experiment [3] has as its target T3, B7H4 (ELISA coat) (human, UniProt Q7Z7D3 25-258, limits assumed).
T3 construct: Species read from the list 'human VISTA, PD-1, PD-L1, ...'; also called VTCN1
T3 sequence (looked up): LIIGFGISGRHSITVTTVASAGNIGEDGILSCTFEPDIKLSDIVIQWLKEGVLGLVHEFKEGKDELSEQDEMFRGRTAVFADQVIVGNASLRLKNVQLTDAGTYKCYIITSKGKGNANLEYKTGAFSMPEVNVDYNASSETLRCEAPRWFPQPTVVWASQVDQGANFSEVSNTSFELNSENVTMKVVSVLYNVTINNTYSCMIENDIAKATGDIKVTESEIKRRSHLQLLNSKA
The experiment can be described thus: ELISA, plate coated with B7H4.

For experiment [4], the target named is T4, B7H6 (ELISA coat) (human, UniProt Q68D85 25-262, limits assumed).
T4 construct: Species read from the list 'human VISTA, PD-1, PD-L1, ...'; also called NCR3LG1
T4 sequence (looked up): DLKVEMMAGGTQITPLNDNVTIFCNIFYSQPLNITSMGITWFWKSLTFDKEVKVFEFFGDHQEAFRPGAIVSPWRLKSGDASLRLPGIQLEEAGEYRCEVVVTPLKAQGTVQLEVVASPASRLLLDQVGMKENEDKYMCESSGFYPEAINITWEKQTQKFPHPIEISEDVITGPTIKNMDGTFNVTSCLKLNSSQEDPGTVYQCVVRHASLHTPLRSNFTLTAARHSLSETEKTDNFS
The experiment can be described thus: ELISA, plate coated with B7H6.

In experiment [5] the target is T5, B7H7 (ELISA coat) (human, UniProt Q9UM44 23-344, limits assumed).
T5 construct: Species read from the list 'human VISTA, PD-1, PD-L1, ...'; also called HHLA2
T5 sequence (looked up): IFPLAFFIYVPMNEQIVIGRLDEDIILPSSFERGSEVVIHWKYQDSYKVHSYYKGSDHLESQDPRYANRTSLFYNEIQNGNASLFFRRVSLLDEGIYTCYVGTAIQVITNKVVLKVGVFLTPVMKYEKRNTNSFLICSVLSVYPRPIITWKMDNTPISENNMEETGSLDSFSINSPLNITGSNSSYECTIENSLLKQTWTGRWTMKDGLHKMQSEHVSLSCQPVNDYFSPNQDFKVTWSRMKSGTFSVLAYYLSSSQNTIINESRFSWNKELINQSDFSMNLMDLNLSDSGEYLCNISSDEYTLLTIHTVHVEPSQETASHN
The experiment can be described thus: ELISA, plate coated with B7H7.

The target in experiment [6] is T6, CTLA4 (ELISA coat) (human, UniProt P16410 36-162, limits assumed).
T6 construct: Species read from the list 'human VISTA, PD-1, PD-L1, ...'
The experiment can be described thus: ELISA, plate coated with CTLA4.

The target of experiment [7] is T7, human PD-L1 (ELISA coat) (human, UniProt Q9NZQ7 19-239). The experiment can be described thus: ELISA, plate coated with B7H1 (PDL1).
The target of experiment [8] is T1, PD-1 (ELISA coat). The experiment can be described thus: ELISA, plate coated with PD1. This is another data set of the same source.
For experiment [9], the target named is T2, B7H3 (ELISA coat). The experiment can be described thus: ELISA, plate coated with B7H3. This is another data set of the same source.
In experiment [10] the target is T3, B7H4 (ELISA coat). The experiment can be described thus: ELISA, plate coated with B7H4. This is another data set of the same source.
Experiment [11] has as its target T4, B7H6 (ELISA coat). The experiment can be described thus: ELISA, plate coated with B7H6. This is another data set of the same source.
Experiment [12] concerns the target T5, B7H7 (ELISA coat). The experiment can be described thus: ELISA, plate coated with B7H7. This is another data set of the same source.
In experiment [13] the target is T6, CTLA4 (ELISA coat). The experiment can be described thus: ELISA, plate coated with CTLA4. The source holds these as a separate data set.
For experiment [14], the target named is T7, human PD-L1 (ELISA coat). The experiment can be described thus: ELISA, plate coated with B7H1 (PDL1). This is another data set of the same source.
Experiment [15] has as its target T1, PD-1 (ELISA coat). The experiment can be described thus: ELISA, plate coated with PD1. This is another data set of the same source.
Experiment [16] has as its target T2, B7H3 (ELISA coat). The experiment can be described thus: ELISA, plate coated with B7H3. This is another data set of the same source.
For experiment [17], the target named is T3, B7H4 (ELISA coat). The experiment can be described thus: ELISA, plate coated with B7H4. The source holds these as a separate data set.
Experiment [18] deals with T4, B7H6 (ELISA coat). The experiment can be described thus: ELISA, plate coated with B7H6. The source holds these as a separate data set.
Experiment [19] concerns the target T5, B7H7 (ELISA coat). The experiment can be described thus: ELISA, plate coated with B7H7. This is another data set of the same source.
Experiment [20] deals with T6, CTLA4 (ELISA coat). The experiment can be described thus: ELISA, plate coated with CTLA4. This is another data set of the same source.
The target of experiment [21] is T7, human PD-L1 (ELISA coat). The experiment can be described thus: ELISA, plate coated with B7H1 (PDL1). This is another data set of the same source.
Experiment [22] concerns the target T2, B7H3 (ELISA coat). The experiment can be described thus: ELISA, B7H3 coated.
In experiment [23] the target is T6, CTLA4 (ELISA coat). The experiment can be described thus: ELISA, CTLA4 coated.
Experiment [24] concerns the target human HER3 (human, UniProt P21860 20-643). The experiment can be described thus: ELISA, human HER3 coated.
Experiment [25] concerns the target T7, human PD-L1 (ELISA coat). The experiment can be described thus: ELISA, human PD-L1 coated.
In experiment [26] the target is T1, PD-1 (ELISA coat). The experiment can be described thus: ELISA, plate coated with PD1. This is another data set of the same source.
Experiment [27] concerns the target T3, B7H4 (ELISA coat). The experiment can be described thus: ELISA, plate coated with B7H4. The source holds these as a separate data set.
Experiment [28] addresses T4, B7H6 (ELISA coat). The experiment can be described thus: ELISA, plate coated with B7H6. The source holds these as a separate data set.
Experiment [29] deals with T5, B7H7 (ELISA coat). The experiment can be described thus: ELISA, plate coated with B7H7. This is another data set of the same source.

Positions count from the first letter of the chain named. Where two headings read alike, the source gives them in different places.

T7 sequence (Q9NZQ7 19-239 limits assumed): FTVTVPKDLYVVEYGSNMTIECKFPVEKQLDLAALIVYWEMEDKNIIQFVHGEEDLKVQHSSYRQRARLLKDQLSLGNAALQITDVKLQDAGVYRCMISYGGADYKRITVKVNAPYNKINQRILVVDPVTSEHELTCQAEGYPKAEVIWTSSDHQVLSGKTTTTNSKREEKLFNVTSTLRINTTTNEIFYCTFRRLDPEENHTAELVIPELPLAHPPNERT
T1 sequence (Q15116 25-167 limits assumed): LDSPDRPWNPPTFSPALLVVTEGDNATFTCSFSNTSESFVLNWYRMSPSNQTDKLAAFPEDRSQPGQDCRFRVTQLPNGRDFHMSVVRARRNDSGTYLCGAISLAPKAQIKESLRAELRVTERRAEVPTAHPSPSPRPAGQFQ
T6 sequence (P16410 36-162 limits assumed): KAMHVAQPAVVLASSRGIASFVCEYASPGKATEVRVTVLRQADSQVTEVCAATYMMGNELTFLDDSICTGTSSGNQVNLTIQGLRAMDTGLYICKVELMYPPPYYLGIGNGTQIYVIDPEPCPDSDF

B1: anti-VISTA clone V4-C24 IgG1 (antibody, V domains shown)
VH: QVQLQESGPGLVKPSDTLSLTCTVSGYSITSDYTWNWIRQTPGKGLEWIGHITYSGSVSYNPSLRSRVTISRDTSKNQFSLKLSSVTAADTATYSCARALYYPWYFDVWGTGTTVTVSS
VL: EIVLTQSPATLSLSPGERATLSCRASSSVGYIHWYQQKPGQAPRPLIYTTSYRATGIPARFSGSGSGTDNTLTISSLEPEDSAVYYCQQWSSYPPITFGGGTKLEVKR
notes: Human IgG1/kappa
In the case of B1, the binding result in [1], in [2], in experiment [3], in experiment [4], in experiment [5] and in experiment [6] was “no binding (tested: log -7.5 (about 3e-8 M))” each time. Further, in [7], the binding result was “no binding (tested: log -7.5 (about 3e-8 M))”.

B2: anti-VISTA clone V4-C26 IgG1 (antibody, V domains shown)
VH: B1 VH
VL: B1 VL with L46I, Y52N
notes: Human IgG1/kappa
With B2, the binding result in experiment [8], in experiment [9], in experiment [10], in [11], in experiment [12] and in experiment [13] was “no binding (tested: log -7.5 (about 3e-8 M))” in each case. Also, the binding result in [14] is “no binding (tested: log -7.5 (about 3e-8 M))”.

B3: anti-VISTA clone V4-C27 IgG1 (antibody, V domains shown)
VH: B1 VH
VL: B1 VL with T49A, S51Y, Y52N
notes: Human IgG1/kappa
Take B3: the binding result in experiment [15], in [16], in experiment [17], in experiment [18], in experiment [19] and in experiment [20] was “no binding (tested: log -7.5 (about 3e-8 M))” each time. Moreover, the binding result in [21] was “no binding (tested: log -7.5 (about 3e-8 M))”.

B4: anti-VISTA clone 4M2-C12 IgG1 (antibody)
heavy: not shown
light: DIVITQTPAILSTSPGEKVTMTCRASSSVGYIHWYQQKPGSSPKPWIYATSNLASGVPARFSGSGSGTSNSLTITRVEAEDAATYYCQQWSSYPPITFGGGTKLEVKRTVAAPSVFIFPPSDEQLKSGTASVVCLLNNFYPREAKVQWKVDNALQSGNSQESVTEQDSKDSTYSLSSTLTLSKADYEKHKVYACEVTHQGLSSPVTKSFNRGEC
notes: also called V4; 4M2-C12-hIgG1
With B4, the binding result is given as “no binding (tested: log M about -7.5)” in [22]; “no binding (tested: log M about -7.5)” in experiment [23]; “no binding (tested: log M about -6.2)” in experiment [24]; “no binding (tested: log M about -6.7)” in experiment [25]; “no binding (tested: log -7.5 (about 3e-8 M))” in [26]; “no binding (tested: log -7.5 (about 3e-8 M))” in experiment [27]. For the same molecule, the binding result in experiment [28] and in experiment [29] was “no binding (tested: log -7.5 (about 3e-8 M))” in each case.
